The source of these data is publication PMC7040040.

The assay deals with T1, pE3-Aβ(3–18) monomer.
T1 chain: EFRHDSGYEVHHQKLV
As to the kind of experiment: SPR (Biacore). As to conditions: chain shown with the change. For orientation: SPR reads the build-up and loss of mass on a sensor chip optically.

B1: humanized PBD-C06 (CDR-grafted IgG1:kappa version) VL:F41L (protein)
chain 1: QVQLVQSGAEVKKSGASVKVSCKASGYSFTGYTMNWVRQAPGQGLEWMGLINPYNGVTRYNQKFKGRVTLIRDTSTTTVYMELTSLTSEDTAVYYCAREAKREWDETYWGQGTLVTVSS
chain 2: DVVMTQSPLSLPVTLGQPASISCKSSQSLLYSDGKTYLNWLQQRPGQSPRRLIYLVSKLDSGVPDRFSGSGSGTDFTLKISRVEAEDVGVYYCVQGTHFPFTFGGGTKVEIK
In general, Kd refers to the equilibrium constant for the complex coming apart. Low readings indicate a tighter complex, high ones a looser complex. The molecule B1 had a Kd of 162 nM.
